The supplement of paper PMC9732359
± gives the uncertainty stated by the source.

Assay: protein stability index of a GFP-peptide fusion (yeast GPS) (PSI 1-4); higher = more stable; sorted into four equal gates, so the index is relative within each strain
Summary of the method: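 Peptides tiling yeast proteins in 17-residue segments were fused downstream of GFP, with Cherry expressed from the same plasmid. As a pooled library in yeast, mid-log cultures grown in leucine-free medium were sorted into four equal gates by GFP/Cherry fluorescence ratio. Gate plasmids were PCR-amplified and Illumina-sequenced, and barcodes linked reads to strains. Each peptide received a protein stability index equal to the sum of each gate's read frequency times its gate number.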

Row | Sequence | protein stability index (doa10∆) | protein stability index (pdr5∆) | protein stability index (san1∆) | protein stability index (ubr1∆)
1 | STDELVGSPLTVSILQE [POP8] | 2.08 ± 0.084 | 2.62 ± 0.11 | 2 ± 0.1 | 2.26 ± 0.084
2 | AGIPIGLKRSQLDEFKN [SWP82] | 2.56 ± 0.084 | 2.22 ± 0.075 | 2.21 ± 0.098 | 1.38 ± 0.055
3 | DSEKRNKYAAMLTSENA [RRP45] | 2.97 ± 0.068 | 3.02 ± 0.063 | 3.14 ± 0.067 | 2.92 ± 0.04
4 | MTVKLESITYQKIMILQ [RGR1] | 2.16 ± 0.071 | 1.73 ± 0.068 | 1.6 ± 0.095 | 2.56 ± 0.076
5 | LKSHYYQTCKNSEYLKR [SMC2] | 1.54 ± 0.067 | 1.5 ± 0.057 | 1.36 ± 0.091 | 1.85 ± 0.046
6 | LKKNNYNSFPHSNLEKI [SIR4] | 3.06 ± 0.099 | 3.27 ± 0.094 | 3.19 ± 0.053 | 3.17 ± 0.054
7 | DFDDSTAQEINFKMLVL [IRR1] | 2.59 ± 0.064 | 2.66 ± 0.053 | 2.67 ± 0.058 | 2.9 ± 0.054
8 | CKDDVQLQKILESLKPI [MTW1] | 3.11 ± 0.11 | 2.94 ± 0.089 | 2.79 ± 0.06 | 2.87 ± 0.07
9 | SQIRLYAKFKRNTMMIQ [RGR1] | 2.44 ± 0.21 | 2.37 ± 0.11 | 2.14 ± 0.11 | 2.61 ± 0.13
10 | DTFGEGIIITDQSNVQY [BRR2] | 3.11 ± 0.17 | 3.21 ± 0.13 | 2.79 ± 0.1 | 2.94 ± 0.093
11 | TRSHFNALYDTLLESNL [RPN6] | 2.3 ± 0.05 | 2.49 ± 0.057 | 2.65 ± 0.047 | 2.69 ± 0.042
12 | EAVIDEKLEVIADELMK [ITC1] | – | – | 3.21 ± 0.25 | 3.27 ± 0.12
13 | NKGAKAEDVALNEQVKK [NAS6] | 2.98 ± 0.2 | 2.96 ± 0.19 | 2.77 ± 0.15 | 3.1 ± 0.075
14 | DTICQSIQEQIQEFQGN [SNF5] | 3.27 ± 0.073 | 3.44 ± 0.1 | 3.36 ± 0.076 | 3.6 ± 0.075
15 | NNPKIQTKDSVKEIVLP [IRR1] | 3.17 ± 0.07 | 2.94 ± 0.077 | 3 ± 0.059 | 3.11 ± 0.051
16 | QFYVKRWKRFTIGAIFL [CDC53] | 2.81 ± 0.076 | 2.94 ± 0.093 | 3.08 ± 0.099 | 2.04 ± 0.055
17 | MIYDDAHEISQGVYGAV [BRR2] | 3 ± 0.068 | 2.88 ± 0.051 | 2.83 ± 0.049 | 2.67 ± 0.045
18 | HGGKMKPEIDENGTLLV [RPR2] | 3.16 ± 0.078 | 3.14 ± 0.11 | 3.05 ± 0.075 | 2.97 ± 0.047
19 | MSVPAIAPRRKRLADGL [DIS3] | 3.37 ± 0.095 | 3.18 ± 0.11 | 3.26 ± 0.078 | 3.11 ± 0.063
20 | EIKDGRSLFLRNRGKIH [YMR153W/NUP53] | 2.01 ± 0.095 | 2.2 ± 0.068 | 1.54 ± 0.16 | 2.46 ± 0.066
21 | LIRRLVRVGVLSEDKKK [RPS9A] | 1.7 ± 0.24 | 1.45 ± 0.29 | – | 1.12 ± 0.18
22 | GGDSDANGTFMDFGVDP [RPN10] | – | – | 3.23 ± 0.13 | 2.96 ± 0.25
23 | DLKEGLQDLSRYSRQFI [GRR1] | 3.07 ± 0.062 | 2.24 ± 0.058 | 3.02 ± 0.038 | 3.29 ± 0.035
24 | IVDDKQEMIDILETIFR [DIB1] | 2.98 ± 0.1 | 3.17 ± 0.13 | 3.02 ± 0.22 | 2.75 ± 0.18
25 | SVRLFSFLDPLNYGNIC [YJL039C/NUP192] | 1.88 ± 0.053 | 2.21 ± 0.069 | 2.47 ± 0.061 | 2 ± 0.063
26 | KTITSGLKYALATGNWG [RPB2] | 2.32 ± 0.066 | 2.33 ± 0.056 | 2.19 ± 0.079 | 2.31 ± 0.048
27 | YKYKMRYVYAHFPINVN [RPL9A] | 2.29 ± 0.051 | 2.29 ± 0.053 | 2.08 ± 0.078 | 2.51 ± 0.041
28 | PDCKIKIAHGTTTLAFR [PRE2] | 2.64 ± 0.077 | 2.72 ± 0.056 | 2.65 ± 0.066 | 2.71 ± 0.064
